Laboratory results: the supplement of paper PMC11865577

Key:
Assay in all cases: pull-down binding Z-score (relative to library population); higher = stronger binding
Details in all cases: RNA library: Library-2
[1] = test system: TO-3-N3 (biotin conjugate)
Method in brief: (§1)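 Streptavidin beads bearing 100 pmol of a biotin-conjugated small molecule were incubated for 60 min at 25 °C with 1 μg of heat-folded, Cy5- or Cy3-end-labelled RNA library in phosphate/NaCl/KCl buffer. Hot SDS eluted the RNA that stayed bound after three washes, and this RNA was hybridised for 20 h at 55.5 °C to a DNA barcode microarray. Binding was expressed as a Z-score against the library mean and standard deviation, after subtraction of a beads-only signal and trimmed averaging of barcoded replicate probes.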

[2] = test system: TO-3-N3-2 (biotin conjugate)
Method in brief: as §1

[3] = test system: TO-N3-2 (biotin conjugate)
Method in brief: as §1

TO-N3 (biotin conjugate) = test system: TO-N3 (biotin conjugate)
Method in brief: as §1

| Sequence | pull-down binding Z-score [1] | pull-down binding Z-score [2] | pull-down binding Z-score [3] | pull-down binding Z-score (TO-N3 (biotin conjugate)) |
| --- | --- | --- | --- | --- |
| GGGAGUCUUCGAGCUCUC [IAV_invivo_NP_5_Motif_24+IAV_invivo_NP_5_Motif_24] | -0.194 | -0.548 | -0.555 | -0.358 |
| AUCAAGACUAUUCAACCAAGGGUUGAAAAGAAAAAGCUUGAU | -0.561 | -0.241 | -1.25 | -0.904 |
| GAGUAUUAGGUUUGAAAACCCUUGCUACUC [SHAPE_invivo_SARS-CoV-2_Motif_136] | -0.732 | -0.359 | -0.731 | -0.966 |
| AAGGUACAGCAGAUACUUACCUG [U1snRNP5ss-22] | -0.32 | 0.198 | 0.0449 | -0.213 |
| GGUGCUCCCAAGAGGGAAGCU [IAV_invivo_NP_5_Motif_18+IAV_invivo_NP_5_Motif_18] | -0.0194 | -0.165 | 0.775 | 0.405 |
| GCGCUGCCAGAAACUGGCCAGCGC [bulge-C] | -0.488 | -0.512 | -0.547 | -0.667 |
| GUUUUAAUUAUGCUUAUUAUCUUUUGGUUCUCACUUGAACUGCAAGAUCAUAAUGAAAC | -0.212 | -0.144 | -1.02 | -0.503 |
| GGCCAUUAGAGGCC [IAV_invivo_PB2_1_Motif_29+IAV_invivo_PB2_1_Motif_29] | 0.0791 | -0.69 | -1.06 | -0.257 |
| GGUCCAGAACAAACCCAAGGAAAUUUUGGGGACC | 0.213 | 0.197 | -0.00332 | 0.0164 |
| GGUGUUGCAGGAGCCUUAAAUAAGGCUACUAACAAUGCC [SHAPE_invivo_SARS-CoV-2_Motif_68] | -0.697 | -0.474 | -1.05 | -0.882 |
| CUGAAAAAUGGGAAUCUGGAGUAAAAGACUGUGUUGUAUUACACAGUUACUUCACUUCAGACUAUUACCAG | -0.376 | -0.182 | -0.48 | -0.329 |
| GUUUAAGGAAGGUGUAGAGUUUCUUAGAGAC | -0.375 | 0.179 | 0.726 | 0.119 |
| CCAUGGCAGAUUCCAACGGUACUAUUACCGUUGAAGAGCUUAAAAAGCUCCUUGAACAAUGGAACCUAGUAAUAGGUUUCCUAUUCCUUACAUGG [DMSMaPseq_invitro_SARS-CoV-2_Multi_81_ComplexLevel_1] | -0.195 | -0.516 | -0.419 | -0.621 |
| GAGACAUUUAAACUGUCUU | -0.469 | -0.286 | -1.06 | -0.91 |
| AGUAUGGCUACAUACU [DMSMaPseq_invitro_SARS-CoV-2_Motif_53] | -0.637 | -0.367 | -1.19 | -1.06 |
| UACCAUUUAAUGAUGGUG | 0.115 | -0.21 | -1.03 | -0.0588 |
| UGAUUUUUGUGGAAAGGGCUAUCAUCUUAUGUCCUUCCCUCAGUCA [SHAPE_invivo_SARS-CoV-2_Motif_462] | -0.662 | -0.0472 | -0.49 | -0.702 |

| Sequence | pull-down binding Z-score [1] | pull-down binding Z-score [2] | pull-down binding Z-score [3] | pull-down binding Z-score (TO-N3 (biotin conjugate)) |
| --- | --- | --- | --- | --- |
| CUCGUCUAUCUUCUGCAGGCUGCUUACGGUUUCGUCCGUGUUGCAGCCGAUCAUCAGCACAUCUAGGUUUCGUCCGGGUGUGACCGAAAGGUAAGAUGGAGAG | -0.0693 | -0.556 | 0.408 | -0.000928 |
| CAUGUGUUGGUAGCGAUAAUGUUACUGACUUUAAUG | -0.663 | -0.614 | -1.01 | -0.995 |
| CCACGCCAGGUAGUGG | 1.16 | 0.0319 | -0.539 | 0.912 |
| AAUGAGUUUUACGCAUAUUUGCGUAAACAUU | -0.889 | -0.413 | -1.23 | -1.36 |
| GUCCUAAAGUGAAGUAUUUAUACUUUAUUAAAGGAU [SHAPE_invivo_SARS-CoV-2_Motif_244] | -0.854 | -0.605 | -1.51 | -1.19 |
| UAAACCACCCAUUAGUUUUCCAUUGUGUGCUAAUGGACAAGUUUUUGGUUUA [SHAPE_invivo_SARS-CoV-2_Motif_310] | -0.757 | -0.357 | -1.35 | -1 |
| AUUUGAACUCUACUAAUGUCACUAUUGCAACCUACUGUACUGGUUCUAUACCUUGUAGUGUUUGUCUUAGUGGUUUAGAU | -0.873 | -0.244 | -0.913 | -1.06 |
| GCACACUAGAACCAGAAUAUUUCAAUUCAGUGUGU | -0.957 | -0.413 | -1.18 | -1.2 |
| UUACAGAUCUUUACCAGGAGUUUUCUGUGGUGUAGAUGCUGUAA [SHAPE_invivo_SARS-CoV-2_Motif_187] | -0.96 | -0.414 | -1 | -1.21 |
| GCGCAGCCAGAAACUGGCGGCGC [mismatch-AG] | 0.114 | -0.168 | -0.228 | 0.0293 |
| AAGAAAGUUGAUGGUGUUGUCCAACAAUUACCUGAAACUUACUU [DMSMaPseq_invitro_SARS-CoV-2_Motif_358] | -1.04 | -0.423 | -1.44 | -1.34 |
| GUGGUUAUACCUACUAAAAAGGCUGGUGGCACUACUGAAAUGCUAGCGAAAGCUUUGAGAAAAGUGCCAACAGACAAUUAUAUAACCAC | -0.608 | 0.156 | 0.179 | -0.353 |
| ACCAGUUAACUGGU [SHAPE_invitro_SARS-CoV-2_Motif_121] | -0.713 | -0.55 | -1.19 | -1.1 |
| UCUAACUUUAGAGUCCAACCAACAGAAUCUAUUGUUAGA | 0.171 | -0.138 | -0.918 | -0.148 |
| AAGUGCUUUUGUUAAUUUAAAACAAUUACCAUUU [SHAPE_invitro_SARS-CoV-2_Motif_354] | -0.729 | -0.225 | -0.811 | -0.977 |
| UGGAUGUAAUUAUCUUGGCAAACCACGCGAACAAAUAGAUGGUUAUGUCAUGCAUGCA | -0.833 | -0.0277 | 0.157 | -0.682 |
